# Experimental data from patent US20250320269A1 (ALBERT EINSTEIN COLLEGE OF MEDICINE, published 2025).
# Where a chain is given by its changes, count along the chain named.
# T1: Human B7-H3 (human, UniProt Q5ZPR3 29-461, limits assumed)
# T1 construct: also called human B7-H3 protein; CD276
# T1 sequence (looked up): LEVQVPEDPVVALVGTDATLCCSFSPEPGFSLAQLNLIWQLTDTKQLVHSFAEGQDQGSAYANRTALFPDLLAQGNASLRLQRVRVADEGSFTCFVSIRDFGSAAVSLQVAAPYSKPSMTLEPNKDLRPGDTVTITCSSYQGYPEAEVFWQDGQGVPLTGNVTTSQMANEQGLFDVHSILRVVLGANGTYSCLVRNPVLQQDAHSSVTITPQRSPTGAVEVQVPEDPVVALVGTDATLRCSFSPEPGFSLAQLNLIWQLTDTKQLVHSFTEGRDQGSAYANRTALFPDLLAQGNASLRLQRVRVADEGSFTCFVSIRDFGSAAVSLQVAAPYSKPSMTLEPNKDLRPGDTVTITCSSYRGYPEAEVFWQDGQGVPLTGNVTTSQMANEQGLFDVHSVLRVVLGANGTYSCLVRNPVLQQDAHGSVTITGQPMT
# T2: Mouse B7-H3 (mouse, UniProt Q8VE98 29-244, limits assumed)
# T2 construct: also called mouse B7-H3 protein
# T2 sequence (looked up): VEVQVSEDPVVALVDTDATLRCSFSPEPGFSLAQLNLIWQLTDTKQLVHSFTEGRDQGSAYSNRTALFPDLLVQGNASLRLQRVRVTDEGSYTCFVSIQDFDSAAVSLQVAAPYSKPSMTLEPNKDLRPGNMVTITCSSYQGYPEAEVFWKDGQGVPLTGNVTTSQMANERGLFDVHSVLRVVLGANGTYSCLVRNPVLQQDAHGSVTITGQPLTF
# B1: 24D12 mAb (antibody, V domains shown)
# VH: QVQLQQPGAELVKPGASVKLSCKASGYTFTSYWMHWVKQRPGQGLEWIGMIHPNSGSTNYNEKFKSKATLTVDKSSSTAYMQLSSLTSEDSAVYYCANYYGTNVWGTGTTVTVS
# VL: DIVLTQSPASLAVSLGQRATISYRASKSVSTSGYSYMHWNQQKPGQPPRLLIYLVSNLESGVPARFSGSGSGTDFTLNIHPVEEEDAATYYCQHIREAYTFGRG
# B2: 1G5 mAb (antibody, V domains shown)
# VH: QVQLQQPGAELVKPGASVKLSCKASGYTFTSYWMHWVKQRPGQGLEWIGMIHPNSGSTNYNEKFKSKATLTVDKSSSTAYMQLSSLTSEDSAVYYCARGGYFDYWGQGTTLTVSS
# VL: DIVMTQSQKFMSTSVGDRVSVTCKASQNVGTNVAWYQQKPGQSPKALIYSASYRYSGVPDRFTGSGSGTDFTLTISNVQSEDLAEYFCQQYNSYPYTFGGGTKLEIKR
# notes: Mouse hybridoma mAb, IgG3 with kappa chain
# B3: 15F9 mAb (antibody, V domains shown)
# VH: B2 VH with S31N, G99R, Y101D, F102G
# VL: DIQMTRHPSSLSASMGERVSLTCRASQEISGYLSWLQQKPDGTIKRLIYAASTLDSGVPKRFSGSRSGSDYSLTISSLESEDFADYYCLQYASYPYTFGGGTKLEI
# notes: as for B2
# B4: 8B12 mAb (antibody, V domains shown)
# VH: QVQLQQPGAELVKPGASVKMSCKASGYTFTSYWITWVKQRPGQGLEWIGDIYPGSGSTNYNEKFKSKATLTVDTSSSTAYMQLSSLTSEDSAVYYCARGGTRFSPFAYWGQGTLVTVSA
# VL: DVLMTQTPLSLPVSLGDQASISCRSSQSIVHSNGNTYLEWYLQKPGQSPKLLIYKVSNRFSGVPDRFSGSGSGTDFTLKISRVEAEDLGVYYCFQGSHVPWTFGGGTKLEIKR
# notes: Mouse hybridoma mAb, IgG3 with kappa chain; also called 8K12; 81812
# B5: 23B2 mAb (antibody, V domains shown)
# VH: QVQLQQPGAELVKPGASVKLSCKASGYTFTSYWMHWVKQRPGQGLEWIGMIHPNSGSTNYNEKFKSKATLTVDKSSSTAYMQLSSLTSEDSAVYYCARESRQLDYWGQGTTLTVSS
# VL: QIVLTQSPAIMSASPGEKVTMTCSASSSISYMHWYQQKPGTSPKRWIYDTSKLASGVPARFSGSGSGTSYSLTISSMEAEDAATYYCHQRSSYPLTFGAGTKLELK
# notes: Mouse hybridoma mAb, IgG1 with kappa chain; also called 231B2
# B6: 12B4 mAb (antibody, V domains shown)
# VH: QVQLQQPGAELVKPGASVKLSCKASGYTFTSYWMHWVKQRPGQGLEWIGMIHPNSGSTNYNEKFKSKATLTVDKSSSTAYMQLSSLTSEDSAVYYCARYYYGSSYAMDYWGQGTSVTVS
# VL: QIVLTQSPAIMSASPGEKVTITCSASSSVSYMHWFQQKPGTSPKLWIYSTSNLASGVPARFSGSGSGTSYSLTISRMEAEDAATYYCQQRSSYPYTFGGGTKLEIKR
# notes: Mouse hybridoma mAb, IgG3 with kappa chain; also called 124; 1214
# Molecular target: T1, Human B7-H3
# Experiment: surface plasmon resonance
row,Kd,Binder
1,4.51 nM,B1
2,4.86 nM,B2
3,4.51 nM,B3
4,0.32 nM,B4
5,11.1 nM,B5
6,5.62 nM,B6

# Molecular target: T2, Mouse B7-H3
# Experiment: surface plasmon resonance
row,Kd,Binder
1,1.76 nM,B1
2,0.81 nM,B2
3,1.76 nM,B3
4,4.01 nM,B4
5,10.2 nM,B5
6,1.71 nM,B6
